Non-standard residues stand in square brackets, D forms with d. No end group written: not given here. *: point of attachment. Phe(F5) = N[C@@H](Cc1c(F)c(F)c(F)c(F)c1F)C(=O)O; Desaminotyrosyl = O=C(CCc1ccc(O)cc1)*; NMeY = CN[C@@H](Cc1ccc(O)cc1)C(=O)O; Agmatine = N=C(N)NCCCCN*; NMeA = CN[C@@H](C)C(=O)O; Nle = CCCC[C@H](N)C(=O)O; Orn = NCCC[C@H](N)C(=O)O; Abu = CC[C@H](N)C(=O)O; Aoc = NCCCCCCCC(=O)O; Ava = NCCCCC(=O)O; GABA = NCCCC(=O)O
T1: GHRH receptor of human pituitary membranes (human, UniProt Q02643)
T1 sequence: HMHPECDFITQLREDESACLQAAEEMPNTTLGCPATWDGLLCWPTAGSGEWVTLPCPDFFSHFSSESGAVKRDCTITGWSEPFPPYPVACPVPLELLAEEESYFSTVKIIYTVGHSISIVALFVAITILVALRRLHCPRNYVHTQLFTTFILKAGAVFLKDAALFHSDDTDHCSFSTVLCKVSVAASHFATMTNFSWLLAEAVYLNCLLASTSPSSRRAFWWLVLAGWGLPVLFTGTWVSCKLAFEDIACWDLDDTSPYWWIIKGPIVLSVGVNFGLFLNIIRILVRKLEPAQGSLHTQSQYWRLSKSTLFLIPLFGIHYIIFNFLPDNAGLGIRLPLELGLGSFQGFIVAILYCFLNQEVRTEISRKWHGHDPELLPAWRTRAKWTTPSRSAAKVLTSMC


biological target: T1, GHRH receptor of human pituitary …; assay: competition vs 125I-JV-1-42, human pituitary membranes;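 further: pituitaries used were normal human glands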
Excerpt: Normal human pituitaries were purchased from the National Hormone and Peptide Program (A.F. Parlow, Los Angeles, County Harbor-UCLA Medical Center, Torrance, Calif.).

Binder	IC50	relative affinity (binding potency) vs JI-38
[NMeY][dA]DAIFTNSYR[Orn]VL[Abu]QLSAR[Orn]LLQDI[Nle]DR[Aoc]-NH2 (N-terminus assumed; SMILES CCCC[C@H](NC(=O)[C@@H](NC(=O)[C@H](CC(=O)O)NC(=O)[C@H](CCC(N)=O)NC(=O)[C@H](CC(C)C)NC(=O)[C@H](CC(C)C)NC(=O)[C@H](CCCN)NC(=O)[C@H](CCCNC(=N)N)NC(=O)[C@H](C)NC(=O)[C@H](CO)NC(=O)[C@H](CC(C)C)NC(=O)[C@H](CCC(N)=O)NC(=O)[C@H](CC)NC(=O)[C@H](CC(C)C)NC(=O)[C@@H](NC(=O)[C@H](CCCN)NC(=O)[C@H](CCCNC(=N)N)NC(=O)[C@H](Cc1ccc(O)cc1)NC(=O)[C@H](CO)NC(=O)[C@H](CC(N)=O)NC(=O)[C@@H](NC(=O)[C@H](Cc1ccccc1)NC(=O)[C@@H](NC(=O)[C@H](C)NC(=O)[C@H](CC(=O)O)NC(=O)[C@@H](C)NC(=O)[C@H](Cc1ccc(O)cc1)NC)[C@@H](C)CC)[C@@H](C)O)C(C)C)[C@@H](C)CC)C(=O)N[C@@H](CC(=O)O)C(=O)N[C@@H](CCCNC(=N)N)C(=O)NCCCCCCCC(N)=O) [P-21303 [N-Me-Tyr^1, D-Ala^2, Orn^12, Abu^15, Orn^21, Nle^27, Asp^28, Amc^30]hGHRH(1-30)NH2]	1.87 nM	2.32 vs JI-38=1
[Desaminotyrosyl][dA]DAIFT[NMeA]SYR[Orn]VL[Abu]QLSAR[Orn]LLQDI[Nle]D[Agmatine] (SMILES CCCC[C@H](NC(=O)[C@@H](NC(=O)[C@H](CC(=O)O)NC(=O)[C@H](CCC(N)=O)NC(=O)[C@H](CC(C)C)NC(=O)[C@H](CC(C)C)NC(=O)[C@H](CCCN)NC(=O)[C@H](CCCNC(=N)N)NC(=O)[C@H](C)NC(=O)[C@H](CO)NC(=O)[C@H](CC(C)C)NC(=O)[C@H](CCC(N)=O)NC(=O)[C@H](CC)NC(=O)[C@H](CC(C)C)NC(=O)[C@@H](NC(=O)[C@H](CCCN)NC(=O)[C@H](CCCNC(=N)N)NC(=O)[C@H](Cc1ccc(O)cc1)NC(=O)[C@H](CO)NC(=O)[C@H](C)N(C)C(=O)[C@@H](NC(=O)[C@H](Cc1ccccc1)NC(=O)[C@@H](NC(=O)[C@H](C)NC(=O)[C@H](CC(=O)O)NC(=O)[C@@H](C)NC(=O)CCc1ccc(O)cc1)[C@@H](C)CC)[C@@H](C)O)C(C)C)[C@@H](C)CC)C(=O)N[C@@H](CC(=O)O)C(=O)NCCCCNC(=N)N) [P-20357 [Dat^1, D-Ala^2, N-Me-Ala^8, Orn^12, Abu^15, Orn^21, Nle^27, Asp^28, Agm^29]hGHRH(1-29)NH2]	0.86 nM	5.06 vs JI-38=1
[Desaminotyrosyl][dA]DAIFTNSYR[Orn]VL[Abu]QLSAR[Orn]LLQDI[Nle]DR[Aoc]-NH2 (SMILES CCCC[C@H](NC(=O)[C@@H](NC(=O)[C@H](CC(=O)O)NC(=O)[C@H](CCC(N)=O)NC(=O)[C@H](CC(C)C)NC(=O)[C@H](CC(C)C)NC(=O)[C@H](CCCN)NC(=O)[C@H](CCCNC(=N)N)NC(=O)[C@H](C)NC(=O)[C@H](CO)NC(=O)[C@H](CC(C)C)NC(=O)[C@H](CCC(N)=O)NC(=O)[C@H](CC)NC(=O)[C@H](CC(C)C)NC(=O)[C@@H](NC(=O)[C@H](CCCN)NC(=O)[C@H](CCCNC(=N)N)NC(=O)[C@H](Cc1ccc(O)cc1)NC(=O)[C@H](CO)NC(=O)[C@H](CC(N)=O)NC(=O)[C@@H](NC(=O)[C@H](Cc1ccccc1)NC(=O)[C@@H](NC(=O)[C@H](C)NC(=O)[C@H](CC(=O)O)NC(=O)[C@@H](C)NC(=O)CCc1ccc(O)cc1)[C@@H](C)CC)[C@@H](C)O)C(C)C)[C@@H](C)CC)C(=O)N[C@@H](CC(=O)O)C(=O)N[C@@H](CCCNC(=N)N)C(=O)NCCCCCCCC(N)=O) [P-21300 [Dat^1, D-Ala^2, Orn^12, Abu^15, Orn^21, Nle^27, Asp^28, Amc^30]hGHRH(1-30)NH2]	3.61 nM	1.2 vs JI-38=1
[Desaminotyrosyl]ADAIFTQSYH[Orn]VL[Abu]QLSAH[Orn]LLQDI[Nle]DR-NHMe (SMILES CCCC[C@H](NC(=O)[C@@H](NC(=O)[C@H](CC(=O)O)NC(=O)[C@H](CCC(N)=O)NC(=O)[C@H](CC(C)C)NC(=O)[C@H](CC(C)C)NC(=O)[C@H](CCCN)NC(=O)[C@H](Cc1c[nH]cn1)NC(=O)[C@H](C)NC(=O)[C@H](CO)NC(=O)[C@H](CC(C)C)NC(=O)[C@H](CCC(N)=O)NC(=O)[C@H](CC)NC(=O)[C@H](CC(C)C)NC(=O)[C@@H](NC(=O)[C@H](CCCN)NC(=O)[C@H](Cc1c[nH]cn1)NC(=O)[C@H](Cc1ccc(O)cc1)NC(=O)[C@H](CO)NC(=O)[C@H](CCC(N)=O)NC(=O)[C@@H](NC(=O)[C@H](Cc1ccccc1)NC(=O)[C@@H](NC(=O)[C@H](C)NC(=O)[C@H](CC(=O)O)NC(=O)[C@H](C)NC(=O)CCc1ccc(O)cc1)[C@@H](C)CC)[C@@H](C)O)C(C)C)[C@@H](C)CC)C(=O)N[C@@H](CC(=O)O)C(=O)N[C@@H](CCCNC(=N)N)C(=O)NC) [P-27413 [Dat^1, Gln^8, His^11, Orn^12, Abu^15, His^20, Orn^21, Nle^27, Asp^28]hGHRH(1-29)NH-CH3]	2.45 nM	1.78 vs JI-38=1
[NMeY]ADAIFTNSYR[Orn]VL[Abu]QLSAR[Orn]LLQDI[Nle]DR[Aoc]-NH2 (N-terminus assumed; SMILES CCCC[C@H](NC(=O)[C@@H](NC(=O)[C@H](CC(=O)O)NC(=O)[C@H](CCC(N)=O)NC(=O)[C@H](CC(C)C)NC(=O)[C@H](CC(C)C)NC(=O)[C@H](CCCN)NC(=O)[C@H](CCCNC(=N)N)NC(=O)[C@H](C)NC(=O)[C@H](CO)NC(=O)[C@H](CC(C)C)NC(=O)[C@H](CCC(N)=O)NC(=O)[C@H](CC)NC(=O)[C@H](CC(C)C)NC(=O)[C@@H](NC(=O)[C@H](CCCN)NC(=O)[C@H](CCCNC(=N)N)NC(=O)[C@H](Cc1ccc(O)cc1)NC(=O)[C@H](CO)NC(=O)[C@H](CC(N)=O)NC(=O)[C@@H](NC(=O)[C@H](Cc1ccccc1)NC(=O)[C@@H](NC(=O)[C@H](C)NC(=O)[C@H](CC(=O)O)NC(=O)[C@H](C)NC(=O)[C@H](Cc1ccc(O)cc1)NC)[C@@H](C)CC)[C@@H](C)O)C(C)C)[C@@H](C)CC)C(=O)N[C@@H](CC(=O)O)C(=O)N[C@@H](CCCNC(=N)N)C(=O)NCCCCCCCC(N)=O) [P-21301 [N-Me-Tyr^1, Orn^12, Abu^15, Orn^21, Nle^27, Asp^28, Amc^30]hGHRH(1-30)NH2]	2.99 nM	1.45 vs JI-38=1
[NMeY][dA]DAI[Phe(F5)]TNSYR[Orn]VL[Abu]QLSAR[Orn]LLQDI[Nle]D[Agmatine] [P-20359 [N-Me-Tyr^1, D-Ala^2, Fpa5^6, Orn^12, Abu^15, Orn^21, Nle^27, Asp^28, Agm^29]hGHRH(1-29)NH2]	3.05 nM	1.43 vs JI-38=1
YADAIFTNSYRKVLGQLSARKLLQDIMSRQ (N-Me-Tyr^1; Orn^12; Abu^15; Orn^21; Nle^27; Gab^30 (in place of Gln^30); C-terminal -NH-CH3) [P-27415 [N-Me-Tyr^1, Orn^12, Abu^15, Orn^21, Nle^27, Gab^30]hGHRH(1-30)NH-CH3]	3.02 nM	1.44 vs JI-38=1
YADAIFTNSYRKVLGQLSARKLLQDIMSRQ (N-Me-Tyr^1; D-Ala^2; Fpa5^6; Orn^12; Abu^15; Orn^21; Nle^27; Gab^30 (in place of Gln^30); C-terminal -NH-CH3) [P-27414 [N-Me-Tyr^1, D-Ala^2, Fpa5^6, Orn^12, Abu^15, Orn^21, Nle^27, Gab^30]hGHRH(1-30)NH-CH3]	1.56 nM	2.79 vs JI-38=1
YADAIFTNSYRKVLGQLSARKLLQDIMSRQ (N-Me-Tyr^1; D-Ala^2; Orn^12; Abu^15; Orn^21; Nle^27; Gab^30 (in place of Gln^30); C-terminal -NH2) [P-25501 [N-Me-Tyr^1, D-Ala^2, Orn^12, Abu^15, Orn^21, Nle^27, Gab^30]hGHRH(1-30)NH2]	1.07 nM	4.07 vs JI-38=1
YADAIFTNSYRKVLGQLSARKLLQDIMSRQ (N-Me-Tyr^1; Abu^2; Orn^12; Abu^15; Orn^21; Nle^27; Gab^30 (in place of Gln^30); C-terminal -NH2) [P-25503 [N-Me-Tyr^1, Abu^2, Orn^12, Abu^15, Orn^21, Nle^27, Gab^30]hGHRH(1-30)NH2]	1.18 nM	3.67 vs JI-38=1
[Desaminotyrosyl][dA]DAIFTNSYR[Orn]VL[Abu]QLSAR[Orn]LLQDI[Nle]DR-NHMe (SMILES CCCC[C@H](NC(=O)[C@@H](NC(=O)[C@H](CC(=O)O)NC(=O)[C@H](CCC(N)=O)NC(=O)[C@H](CC(C)C)NC(=O)[C@H](CC(C)C)NC(=O)[C@H](CCCN)NC(=O)[C@H](CCCNC(=N)N)NC(=O)[C@H](C)NC(=O)[C@H](CO)NC(=O)[C@H](CC(C)C)NC(=O)[C@H](CCC(N)=O)NC(=O)[C@H](CC)NC(=O)[C@H](CC(C)C)NC(=O)[C@@H](NC(=O)[C@H](CCCN)NC(=O)[C@H](CCCNC(=N)N)NC(=O)[C@H](Cc1ccc(O)cc1)NC(=O)[C@H](CO)NC(=O)[C@H](CC(N)=O)NC(=O)[C@@H](NC(=O)[C@H](Cc1ccccc1)NC(=O)[C@@H](NC(=O)[C@H](C)NC(=O)[C@H](CC(=O)O)NC(=O)[C@@H](C)NC(=O)CCc1ccc(O)cc1)[C@@H](C)CC)[C@@H](C)O)C(C)C)[C@@H](C)CC)C(=O)N[C@@H](CC(=O)O)C(=O)N[C@@H](CCCNC(=N)N)C(=O)NC) [P-27400 [Dat^1, D-Ala^2, Orn^12, Abu^15, Orn^21, Nle^27, Asp^28]hGHRH(1-29)NH-CH3]	3.35 nM	1.3 vs JI-38=1
[NMeY]ADAIFTQSYR[Orn]VL[Abu]QLSAR[Orn]LLQDI[Nle]SRQ-{GABA-NH2} [P-29703 [N-Me-Tyr^1, Gln^8, Orn^12, Abu^15, Orn^21, Nle^27, Gln-Gab^30]hGHRH(1-30)NH2]	1.22 nM	3.57 vs JI-38=1
[NMeY]ADAIFTQSYR[Orn]VL[Abu]QLSAR[Orn]LLQDI[Nle]DR[Ava]-NH2 (N-terminus assumed; SMILES CCCC[C@H](NC(=O)[C@@H](NC(=O)[C@H](CC(=O)O)NC(=O)[C@H](CCC(N)=O)NC(=O)[C@H](CC(C)C)NC(=O)[C@H](CC(C)C)NC(=O)[C@H](CCCN)NC(=O)[C@H](CCCNC(=N)N)NC(=O)[C@H](C)NC(=O)[C@H](CO)NC(=O)[C@H](CC(C)C)NC(=O)[C@H](CCC(N)=O)NC(=O)[C@H](CC)NC(=O)[C@H](CC(C)C)NC(=O)[C@@H](NC(=O)[C@H](CCCN)NC(=O)[C@H](CCCNC(=N)N)NC(=O)[C@H](Cc1ccc(O)cc1)NC(=O)[C@H](CO)NC(=O)[C@H](CCC(N)=O)NC(=O)[C@@H](NC(=O)[C@H](Cc1ccccc1)NC(=O)[C@@H](NC(=O)[C@H](C)NC(=O)[C@H](CC(=O)O)NC(=O)[C@H](C)NC(=O)[C@H](Cc1ccc(O)cc1)NC)[C@@H](C)CC)[C@@H](C)O)C(C)C)[C@@H](C)CC)C(=O)N[C@@H](CC(=O)O)C(=O)N[C@@H](CCCNC(=N)N)C(=O)NCCCCC(N)=O) [P-22325 [N-Me-Tyr^1, Gln^8, Orn^12, Abu^15, Orn^21, Nle^27, Asp^28, Apa^30]hGHRH(1-30)NH2]	3.8 nM	1.14 vs JI-38=1
